Test results reported in paper PMC6468047, “Cannabinoid CB1 and CB2 Receptor-Mediated Arrestin Translocation: Species, Subtype, and Agonist-Dependence” (Frontiers in Pharmacology, 2019).
Like-named read-outs stand apart in the source and are kept apart here.

Key:
[1] = biological target: human D2 dopamine receptor (3HA-hD2R) (human) (UniProt P14416)
[2] = biological target: human vasopressin receptor 2 (3HA-hV2R) (human) (UniProt P30518)
[3] = biological target: human cannabinoid receptor 1 (pplss-3HA-hCB1) (human) (UniProt P21554)
Sequence of human cannabinoid receptor 1 (pplss-3HA-hCB1) (human) (P21554 whole entry): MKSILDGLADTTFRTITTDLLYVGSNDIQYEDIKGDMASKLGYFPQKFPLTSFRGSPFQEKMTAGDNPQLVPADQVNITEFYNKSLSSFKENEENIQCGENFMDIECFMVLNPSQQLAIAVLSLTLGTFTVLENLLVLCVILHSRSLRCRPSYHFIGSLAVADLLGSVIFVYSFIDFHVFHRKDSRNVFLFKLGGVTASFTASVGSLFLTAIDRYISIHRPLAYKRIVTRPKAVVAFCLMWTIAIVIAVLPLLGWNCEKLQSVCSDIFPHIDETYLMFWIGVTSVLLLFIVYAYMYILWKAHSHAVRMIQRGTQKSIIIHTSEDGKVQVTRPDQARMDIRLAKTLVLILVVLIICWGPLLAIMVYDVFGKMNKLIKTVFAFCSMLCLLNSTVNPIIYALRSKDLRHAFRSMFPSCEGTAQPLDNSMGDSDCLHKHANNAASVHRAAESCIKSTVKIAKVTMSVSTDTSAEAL

[4] = biological target: human cannabinoid receptor 2 (3HA-hCB2) (human) (UniProt P34972)
Sequence of human cannabinoid receptor 2 (3HA-hCB2) (human) (P34972 whole entry): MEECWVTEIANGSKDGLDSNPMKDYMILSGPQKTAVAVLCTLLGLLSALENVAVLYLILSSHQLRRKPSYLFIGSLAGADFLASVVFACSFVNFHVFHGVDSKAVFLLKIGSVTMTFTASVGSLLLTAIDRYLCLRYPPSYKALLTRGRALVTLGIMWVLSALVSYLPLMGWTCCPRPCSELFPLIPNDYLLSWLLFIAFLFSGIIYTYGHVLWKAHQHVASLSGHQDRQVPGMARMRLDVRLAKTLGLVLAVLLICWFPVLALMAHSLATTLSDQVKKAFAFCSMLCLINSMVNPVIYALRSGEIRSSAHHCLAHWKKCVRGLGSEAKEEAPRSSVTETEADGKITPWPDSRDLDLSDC

[5] = biological target: human D2 dopamine receptor (3HA-hD2R) (human) (UniProt P14416); remark: listed apart in the source
[6] = biological target: human vasopressin receptor 2 (3HA-hV2R) (human) (UniProt P30518); remark: listed apart in the source
[7] = biological target: human cannabinoid receptor 1 (pplss-3HA-hCB1) (human) (UniProt P21554); remark: listed apart in the source
[8] = biological target: human cannabinoid receptor 2 (3HA-hCB2) (human) (UniProt P34972); remark: listed apart in the source
[9] = biological target: human vasopressin receptor 2 (3HA-hV2R) (human) (UniProt P30518); remark: listed apart in the source
[10] = biological target: human cannabinoid receptor 1 (pplss-3HA-hCB1) (human) (UniProt P21554); remark: listed apart in the source
[11] = biological target: human cannabinoid receptor 2 (3HA-hCB2) (human) (UniProt P34972); remark: listed apart in the source

Sequence of human D2 dopamine receptor (3HA-hD2R) (human) (P14416 whole entry): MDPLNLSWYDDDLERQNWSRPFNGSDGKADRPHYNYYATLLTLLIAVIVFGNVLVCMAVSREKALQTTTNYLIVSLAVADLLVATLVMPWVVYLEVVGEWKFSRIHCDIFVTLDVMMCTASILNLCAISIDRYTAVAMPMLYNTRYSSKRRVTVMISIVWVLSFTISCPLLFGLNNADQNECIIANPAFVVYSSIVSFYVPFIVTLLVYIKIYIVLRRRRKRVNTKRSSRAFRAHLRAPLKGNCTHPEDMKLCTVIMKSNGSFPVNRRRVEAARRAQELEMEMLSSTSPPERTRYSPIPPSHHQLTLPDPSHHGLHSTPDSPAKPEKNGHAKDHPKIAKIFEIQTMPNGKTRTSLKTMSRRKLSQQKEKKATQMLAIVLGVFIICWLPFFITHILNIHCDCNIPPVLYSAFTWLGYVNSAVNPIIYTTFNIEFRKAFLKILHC
Sequence of human β-arrestin-2 (Rluc8-hβ-arrestin-2-Sp1) (P32121 whole entry): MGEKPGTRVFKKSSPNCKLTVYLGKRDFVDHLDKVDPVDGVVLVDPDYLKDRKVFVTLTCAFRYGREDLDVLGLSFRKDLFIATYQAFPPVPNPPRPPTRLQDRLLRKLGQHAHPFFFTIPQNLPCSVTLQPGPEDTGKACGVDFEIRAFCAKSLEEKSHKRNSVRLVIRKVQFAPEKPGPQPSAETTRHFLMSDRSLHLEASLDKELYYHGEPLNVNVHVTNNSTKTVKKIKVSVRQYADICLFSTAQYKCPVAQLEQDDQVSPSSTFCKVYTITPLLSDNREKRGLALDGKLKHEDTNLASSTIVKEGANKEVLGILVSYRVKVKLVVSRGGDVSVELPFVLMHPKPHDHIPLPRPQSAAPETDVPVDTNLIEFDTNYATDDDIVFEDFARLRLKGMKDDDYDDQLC
Sequence of bovine β-arrestin-2 (Rluc8-bβ-arrestin-2-Sp1) (P32120 whole entry): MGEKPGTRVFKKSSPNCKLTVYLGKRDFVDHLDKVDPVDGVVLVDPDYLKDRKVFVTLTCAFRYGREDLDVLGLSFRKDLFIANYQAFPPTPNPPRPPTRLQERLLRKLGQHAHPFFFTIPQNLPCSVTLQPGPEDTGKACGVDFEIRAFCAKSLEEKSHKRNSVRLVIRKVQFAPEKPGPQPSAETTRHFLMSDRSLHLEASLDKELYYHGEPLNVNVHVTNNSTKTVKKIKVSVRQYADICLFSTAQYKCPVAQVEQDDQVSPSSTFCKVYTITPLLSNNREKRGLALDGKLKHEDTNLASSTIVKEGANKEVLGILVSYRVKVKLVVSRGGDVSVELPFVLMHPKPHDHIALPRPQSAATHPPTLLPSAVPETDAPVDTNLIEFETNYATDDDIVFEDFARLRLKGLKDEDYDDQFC
Sequence of human β-arrestin-1 (Rluc8-hβ-arrestin-1-Sp1) (P49407 whole entry): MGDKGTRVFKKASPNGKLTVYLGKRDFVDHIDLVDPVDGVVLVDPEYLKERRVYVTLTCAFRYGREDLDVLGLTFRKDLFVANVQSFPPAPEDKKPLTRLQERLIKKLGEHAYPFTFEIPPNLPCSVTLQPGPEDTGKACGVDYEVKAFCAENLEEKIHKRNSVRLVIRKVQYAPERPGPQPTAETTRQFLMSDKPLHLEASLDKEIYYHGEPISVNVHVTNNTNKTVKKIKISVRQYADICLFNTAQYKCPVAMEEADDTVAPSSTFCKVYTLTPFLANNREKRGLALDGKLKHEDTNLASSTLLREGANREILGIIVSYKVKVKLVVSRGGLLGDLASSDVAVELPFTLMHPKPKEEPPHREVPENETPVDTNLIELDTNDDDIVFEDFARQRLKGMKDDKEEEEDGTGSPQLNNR

Substance: bovine β-arrestin-2 (Rluc8-bβ-arrestin-2-Sp1) (from UniProt P32120 1-420) (natural protein)
- Emax, arrestin translocation to the plasma membrane (BRET, AUC of 25 min); agonist dopamine [1]: 40.6 ΔBRET.sec
- Emax, arrestin translocation to the plasma membrane (BRET, AUC of 25 min); agonist dopamine; GRK2 co-expressed [1]: 129 ΔBRET.sec
- Emax, arrestin translocation to the plasma membrane (BRET, AUC of 25 min); agonist AVP [2]: 194 ΔBRET.sec
- Emax, arrestin translocation to the plasma membrane (BRET, AUC of 25 min); agonist 2-AG [3]: 116 ΔBRET.sec
- Emax, arrestin translocation to the plasma membrane (BRET, AUC of 25 min); agonist 2-AG; GRK2 co-expressed [3]: 91.7 ΔBRET.sec
- Emax, arrestin translocation to the plasma membrane (BRET, AUC of 25 min); agonist AEA [3]: 32.1 ΔBRET.sec
- Emax, arrestin translocation to the plasma membrane (BRET, AUC of 25 min); agonist CP55,940 [3]: 35.2 ΔBRET.sec
- Emax, arrestin translocation to the plasma membrane (BRET, AUC of 25 min); agonist CP55,940; GRK2 co-expressed [3]: 58.9 ΔBRET.sec
- Emax, arrestin translocation to the plasma membrane (BRET, AUC of 25 min); agonist WIN55,212-2 [3]: 72 ΔBRET.sec
- efficacy at 10 μM BAY (NA, not active; no curve could be fitted), arrestin translocation to the plasma membrane (BRET, AUC of 25 min) [3]: 2.4 ΔBRET.sec
- efficacy at 10 μM THC (NA, not active; no curve could be fitted), arrestin translocation to the plasma membrane (BRET, AUC of 25 min) [3]: 0.54 ΔBRET.sec
- Emax, arrestin translocation to the plasma membrane (BRET, AUC of 25 min); agonist 2-AG [4]: 45 ΔBRET.sec
- Emax, arrestin translocation to the plasma membrane (BRET, AUC of 25 min); agonist 2-AG; GRK2 co-expressed [4]: 75.7 ΔBRET.sec
- Emax, arrestin translocation to the plasma membrane (BRET, AUC of 25 min); agonist CP55,940 [4]: 45.4 ΔBRET.sec
- Emax, arrestin translocation to the plasma membrane (BRET, AUC of 25 min); agonist CP55,940; GRK2 co-expressed [4]: 70.9 ΔBRET.sec
- Emax, arrestin translocation to the plasma membrane (BRET, AUC of 25 min); agonist JWH-015 [4]: 26.7 ΔBRET.sec
- Emax, arrestin translocation to the plasma membrane (BRET, AUC of 25 min); agonist JWH-133 [4]: 49.7 ΔBRET.sec
- Emax, arrestin translocation to the plasma membrane (BRET, AUC of 25 min); agonist WIN55,212-2 [4]: 25.6 ΔBRET.sec
- efficacy at 10 μM THC (NA, not active; no curve could be fitted), arrestin translocation to the plasma membrane (BRET, AUC of 25 min) [4]: 2 ΔBRET.sec

Substance: human β-arrestin-1 (Rluc8-hβ-arrestin-1-Sp1) (from UniProt P49407 1-418) (natural protein)
- Response, arrestin translocation to the plasma membrane (BRET, AUC of 25 min); 10 μM dopamine [5]: 17.9 ΔBRET.sec
- Response, arrestin translocation to the plasma membrane (BRET, AUC of 25 min); 10 μM dopamine; GRK2 co-expressed [5]: 86.1 ΔBRET.sec
- Emax, arrestin translocation to the plasma membrane (BRET, AUC of 25 min); agonist AVP [6]: 246 ΔBRET.sec
- Response, arrestin translocation to the plasma membrane (BRET, AUC of 25 min); 1 μM CP55,940 (not significantly different from vehicle) [7]: 17.6 ΔBRET.sec
- Response, arrestin translocation to the plasma membrane (BRET, AUC of 25 min); 1 μM CP55,940; GRK2 co-expressed (significantly different from vehicle) [7]: 28.1 ΔBRET.sec
- Response, arrestin translocation to the plasma membrane (BRET, AUC of 25 min); 10 μM AEA (not significantly different from vehicle) [7]: 10 ΔBRET.sec
- Response, arrestin translocation to the plasma membrane (BRET, AUC of 25 min); 10 μM BAY (not significantly different from vehicle) [7]: 1.4 ΔBRET.sec
- Response, arrestin translocation to the plasma membrane (BRET, AUC of 25 min); 10 μM THC (not significantly different from vehicle) [7]: 16.2 ΔBRET.sec
- Response, arrestin translocation to the plasma membrane (BRET, AUC of 25 min); 10 μM WIN55,212-2 (significantly different from vehicle) [7]: 36.2 ΔBRET.sec
- Response, arrestin translocation to the plasma membrane (BRET, AUC of 25 min); 31.6 μM 2-AG (significantly different from vehicle) [7]: 51.8 ΔBRET.sec
- Response, arrestin translocation to the plasma membrane (BRET, AUC of 25 min); 31.6 μM 2-AG; GRK2 co-expressed (significantly different from vehicle) [7]: 53 ΔBRET.sec
- Response, arrestin translocation to the plasma membrane (BRET, AUC of 25 min); 1 μM CP55,940 (significantly different from vehicle) [8]: 20.5 ΔBRET.sec
- Response, arrestin translocation to the plasma membrane (BRET, AUC of 25 min); 1 μM CP55,940; GRK2 co-expressed (significantly different from vehicle) [8]: 22.7 ΔBRET.sec
- Response, arrestin translocation to the plasma membrane (BRET, AUC of 25 min); 10 μM JWH-015 (significantly different from vehicle) [8]: 31.2 ΔBRET.sec
- Response, arrestin translocation to the plasma membrane (BRET, AUC of 25 min); 10 μM JWH-133 (not significantly different from vehicle) [8]: 4.9 ΔBRET.sec
- Response, arrestin translocation to the plasma membrane (BRET, AUC of 25 min); 10 μM THC (significantly different from vehicle) [8]: 14.4 ΔBRET.sec
- Response, arrestin translocation to the plasma membrane (BRET, AUC of 25 min); 10 μM WIN55,212-2 (not significantly different from vehicle) [8]: 3.2 ΔBRET.sec
- Response, arrestin translocation to the plasma membrane (BRET, AUC of 25 min); 31.6 μM 2-AG (significantly different from vehicle) [8]: 14.7 ΔBRET.sec
- Response, arrestin translocation to the plasma membrane (BRET, AUC of 25 min); 31.6 μM 2-AG; GRK2 co-expressed (significantly different from vehicle) [8]: 17.2 ΔBRET.sec

Substance: human β-arrestin-2 (Rluc8-hβ-arrestin-2-Sp1) (from UniProt P32121 1-409) (natural protein)
- Emax, arrestin translocation to the plasma membrane (BRET, AUC of 25 min); agonist AVP [9]: 306 ΔBRET.sec
- Emax, arrestin translocation to the plasma membrane (BRET, AUC of 25 min); agonist 2-AG [10]: 236 ΔBRET.sec
- Emax, arrestin translocation to the plasma membrane (BRET, AUC of 25 min); agonist 2-AG; GRK2 co-expressed [10]: 150 ΔBRET.sec
- Emax, arrestin translocation to the plasma membrane (BRET, AUC of 25 min); agonist AEA [10]: 47.9 ΔBRET.sec
- Emax, arrestin translocation to the plasma membrane (BRET, AUC of 25 min); agonist CP55,940 [10]: 83.7 ΔBRET.sec
- Emax, arrestin translocation to the plasma membrane (BRET, AUC of 25 min); agonist CP55,940; GRK2 co-expressed [10]: 120 ΔBRET.sec
- Emax, arrestin translocation to the plasma membrane (BRET, AUC of 25 min); agonist WIN55,212-2 [10]: 164 ΔBRET.sec
- efficacy at 10 μM BAY (NA, not active; no curve could be fitted), arrestin translocation to the plasma membrane (BRET, AUC of 25 min) [10]: 15.3 ΔBRET.sec
- efficacy at 10 μM THC (NA, not active; no curve could be fitted), arrestin translocation to the plasma membrane (BRET, AUC of 25 min) [10]: 5.9 ΔBRET.sec
- Emax, arrestin translocation to the plasma membrane (BRET, AUC of 25 min); agonist 2-AG [11]: 31.3 ΔBRET.sec
- Emax, arrestin translocation to the plasma membrane (BRET, AUC of 25 min); agonist 2-AG; GRK2 co-expressed [11]: 68.7 ΔBRET.sec
- Emax, arrestin translocation to the plasma membrane (BRET, AUC of 25 min); agonist CP55,940 [11]: 37.4 ΔBRET.sec
- Emax, arrestin translocation to the plasma membrane (BRET, AUC of 25 min); agonist CP55,940; GRK2 co-expressed [11]: 70.4 ΔBRET.sec
- Emax, arrestin translocation to the plasma membrane (BRET, AUC of 25 min); agonist JWH-015 [11]: 34 ΔBRET.sec
- Emax, arrestin translocation to the plasma membrane (BRET, AUC of 25 min); agonist JWH-133 [11]: 37.8 ΔBRET.sec
- Emax, arrestin translocation to the plasma membrane (BRET, AUC of 25 min); agonist WIN55,212-2 [11]: 24.4 ΔBRET.sec
- efficacy at 10 μM THC (NA, not active; no curve could be fitted), arrestin translocation to the plasma membrane (BRET, AUC of 25 min) [11]: -3.8 ΔBRET.sec
